Publication PMC6474348

How the values were obtained:
[1] = target: maltose binding protein (MBP)-batVP35 (Myotis lucifigus); assay: SEC-MALS
[2] = target: eVP35 IID (MBP-eVP35 215-240 as printed) (Ebola virus, UniProt Q05127 215-340); assay: filter binding

maltose binding protein (MBP)-batVP35 (natural protein)
stoichiometry N [1]: 4

B1: 8 bp dsRNA (dsRNA)
RNA 1: CGCAUGCG
RNA 2: CGCAUGCG
binding signal [2]: 1 fraction relative to eVP35
